Reference: patent US20200317768A1 (published 2020)

T1: cynomolgus monkey FcγRIIa2 extracellular domain, C-terminal His-tag (cynomolgus monkey)
T1 construct: also called cyno FcγRIIa2; cynoFcgRIIa2; not shown: His-tag added to C-terminus
T1 chain: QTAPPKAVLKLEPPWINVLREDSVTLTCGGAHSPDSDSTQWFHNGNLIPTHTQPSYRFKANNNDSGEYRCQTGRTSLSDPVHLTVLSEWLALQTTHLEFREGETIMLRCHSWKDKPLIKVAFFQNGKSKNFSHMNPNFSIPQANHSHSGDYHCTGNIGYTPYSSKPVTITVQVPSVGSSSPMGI

T2: human FcγRIIaH extracellular domain, C-terminal His-tag (human, UniProt P12318 34-217)
T2 construct: also called human FcγRIIa (type H); FcgRIIaH; not shown: His-tag added to C-terminus
T2 sequence: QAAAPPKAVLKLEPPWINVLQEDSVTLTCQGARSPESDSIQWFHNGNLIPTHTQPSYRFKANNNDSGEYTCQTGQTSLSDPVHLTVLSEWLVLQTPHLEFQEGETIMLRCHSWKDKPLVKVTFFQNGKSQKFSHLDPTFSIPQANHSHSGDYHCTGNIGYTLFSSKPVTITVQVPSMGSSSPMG

T3: cynomolgus monkey FcγRIIa1 extracellular domain, C-terminal His-tag (cynomolgus monkey)
T3 construct: also called cyno FcγRIIa1; cynoFcgRIIa1; not shown: His-tag added to C-terminus
T3 chain: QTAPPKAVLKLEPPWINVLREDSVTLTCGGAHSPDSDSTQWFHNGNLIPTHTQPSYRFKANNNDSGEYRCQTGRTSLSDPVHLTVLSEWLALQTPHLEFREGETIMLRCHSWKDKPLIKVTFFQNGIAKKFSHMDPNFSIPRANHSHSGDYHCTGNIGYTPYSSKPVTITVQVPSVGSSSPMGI

T4: human FcγRIIb extracellular domain, C-terminal His-tag (human, UniProt P31994 43-217)
T4 construct: also called FcgRIIb (human); not shown: His-tag added to C-terminus
T4 sequence: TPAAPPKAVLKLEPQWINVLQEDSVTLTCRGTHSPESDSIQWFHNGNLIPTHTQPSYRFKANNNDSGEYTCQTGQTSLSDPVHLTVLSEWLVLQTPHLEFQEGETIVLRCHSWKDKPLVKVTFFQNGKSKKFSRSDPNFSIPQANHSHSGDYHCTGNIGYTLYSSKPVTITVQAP

T5: human FcγRIIaR extracellular domain, C-terminal His-tag (human, UniProt P12318 34-217)
T5 construct: also called human FcγRIIa (type R); FcgRIIaR; not shown: His-tag added to C-terminus
T5 chain: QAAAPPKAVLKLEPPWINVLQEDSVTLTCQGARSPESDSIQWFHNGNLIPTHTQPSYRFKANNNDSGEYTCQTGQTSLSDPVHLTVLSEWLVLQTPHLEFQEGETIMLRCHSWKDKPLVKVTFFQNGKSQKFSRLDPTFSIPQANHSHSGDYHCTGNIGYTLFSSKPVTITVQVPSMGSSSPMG

T6: cynomolgus monkey FcγRIIb extracellular domain, C-terminal His-tag (cynomolgus monkey)
T6 construct: also called cyno FcγRIIb; cynoFcγRIIb; not shown: His-tag added to C-terminus
T6 chain: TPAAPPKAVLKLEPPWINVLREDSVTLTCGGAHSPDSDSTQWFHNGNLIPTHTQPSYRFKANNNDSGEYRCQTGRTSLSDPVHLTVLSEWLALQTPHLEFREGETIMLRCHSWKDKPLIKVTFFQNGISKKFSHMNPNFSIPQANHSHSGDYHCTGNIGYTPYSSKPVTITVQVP

T7: cynomolgus monkey FcγRIIa3 extracellular domain, C-terminal His-tag (cynomolgus monkey)
T7 construct: also called cyno FcγRIIa3; cynoFcgRIIa3; not shown: His-tag added to C-terminus
T7 chain: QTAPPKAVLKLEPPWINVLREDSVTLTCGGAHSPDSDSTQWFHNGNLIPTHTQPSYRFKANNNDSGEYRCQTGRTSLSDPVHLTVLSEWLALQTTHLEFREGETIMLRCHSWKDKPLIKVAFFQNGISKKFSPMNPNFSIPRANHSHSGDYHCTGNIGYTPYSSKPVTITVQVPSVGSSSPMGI


Experiments:
Experiment in all cases: SPR (Biacore), KD of SG1 / KD of variant;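 note: relative to parent M103205H795-SG1 carrying the SG1 human heavy chain constant region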
[1] = molecular target: T1, cynomolgus monkey FcγRIIa2 …
Experimental: (§1) The kinetic analysis of interactions between these antibodies and FcγR was carried out using BIACORE® T200 or BIACORE® 4000 (GE Healthcare). HBS-EP+ (GE Healthcare) was used as the running buffer, and the measurement temperature was set to 25° C. A chip produced by immobilizing Protein A. Protein A/G or mouse anti-human IgG kappa light chain (BD Biosciences) onto a Series S Sensor Chip CM4 or CM5 (GE Healthcare) by the amine-coupling method was used. […] After the measurement, the antibody captured on the chip was washed off by allowing reaction with 10 mM glycine-HCl, pH1.5 and 25 mM NaOH so that the chip was regenerated and used repeatedly. The sensorgrams obtained as measurement results were analyzed by the 1:1 Langmuir binding model using the BIACORE® Evaluation Software to calculate the binding rate constant ka (L/mol/s) and dissociation rate constant kd (l/s), and the dissociation constant KD (mol/L) was calculated from these values. […] Regarding such interactions, KD values were calculated using the following 1:1 binding model described in BIACORE® T100 Software Handbook BR1006-48 Edition AE.
(§2) The behavior of interacting molecules according to the 1:1 binding model on BIACORE® can be described by Equation 1: Req=C·R max/(KD+C)+RI, wherein, Req is a plot of steady-state binding levels to analyte concentration. C is concentration, RI is bulk refractive index contribution in the sample, and Rmax is analyte binding capacity of the surface. When this equation is rearranged, KD can be expressed as Equation 2: KD=C·Rmax/(Req−RI)−C. KD can be calculated by substituting the values of Rmax, RI, and C into Equation 1 or Equation 2. From the current measurement conditions, RI=0, C=2 μmol/L can be used.

[2] = molecular target: T2, human FcγRIIaH extracellular domain, …
Experimental: as §1, §2

[3] = molecular target: T3, cynomolgus monkey FcγRIIa1 …
Experimental: as §1, §2

[4] = molecular target: T4, human FcγRIIb extracellular domain, …
Experimental: as §1, §2

[5] = molecular target: T8, human FcγRIIIaV extracellular domain, C-terminal His-tag (human, UniProt P08637 17-208)
T8 construct: also called FcgRIIIaV; not shown: His-tag added to C-terminus
T8 sequence (P08637 17-208 F176V): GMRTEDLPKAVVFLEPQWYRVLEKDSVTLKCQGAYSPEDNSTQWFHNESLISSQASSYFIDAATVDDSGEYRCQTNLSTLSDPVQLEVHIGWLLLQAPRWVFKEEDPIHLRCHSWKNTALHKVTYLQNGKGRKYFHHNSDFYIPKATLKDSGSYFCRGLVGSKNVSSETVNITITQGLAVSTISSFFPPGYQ
Experimental: as §1, §2

[6] = molecular target: T5, human FcγRIIaR extracellular domain, …
Experimental: as §1, §2

[7] = molecular target: T6, cynomolgus monkey FcγRIIb extracellular …
Experimental: as §1, §2

[8] = molecular target: T7, cynomolgus monkey FcγRIIa3 …
Experimental: as §1, §2

Binder	KD fold (SG1 = 1) [1]	KD fold (SG1 = 1) [2]	KD fold (SG1 = 1) [3]	KD fold (SG1 = 1) [4]	KD fold (SG1 = 1) [5]	KD fold (SG1 = 1) [6]	KD fold (SG1 = 1) [7]	KD fold (SG1 = 1) [8]
MS_M103205H795-SG1/M103202L889-SK1 (antibody, human IgG1, kappa, Parent antibody; also called MS1032LO06-SG1) heavy: not shown light: DIVMTQSPATLSLSPGERATLSCTSSQSVYHANWLSWFQQKPGQPPKLLIYWASTLAYGVPSRFSGSGSGTDFTLTISSLQPEDAATYYCAGGYGGGRYAFGQGTKVEIKRTVAAPSVFIFPPSDEQLKSGTASVVCLLNNFYPREAKVQWKVDNALQSGNSQESVTEQDSKDSTYSLSSTLTLSKADYEKHKVYACEVTHQGLSSPVTKSFNRGEC	1 fold	1 fold	1 fold	1 fold	1 fold	1 fold	1 fold	1 fold
M103205H795-MY142/M103202L889-SK1 (antibody, human IgG1, kappa) heavy: QVTLKESGPVLVKPTETLTLTCTVSGIDLSHDDISWVRQAPGKGLEWVGIISYAGSTYYASWAKGRLTISKDTSKNQVVLTMTNMDPVDTATYYCARGVPAYSHGGDLWGQGTLVTVSSASTKGPSVFPLAPSSKSTSGGTAALGCLVKDYFPEPVTVSWNSGALTSGVHTFPAVLQSSGLYSLSSVVTVPSSSLGTQTYICNVNHKPSNTKVDKKVEPKSCDKTHTCPPCPAPELLEGPSVFLFPPKPKDTLMISRTPEVTCVVVDVSEEDPEVKFNWYVDGVEVHNAKTKPREEQYNSTYRVVSVLTVLHQDWLNGKEYKCKVSNKALPAPIEKTISKAKGQPREPQVYTLPPSREEMTKNQVSLTCLVKGFYPSDIAVEWESNGQPENNYKTTPMVLDSDGSFFLYSKLTVDKSRWQQGNVFSCSVMHEALHNHYTQKSLSLSP light: DIVMTQSPATLSLSPGERATLSCTSSQSVYHANWLSWFQQKPGQPPKLLIYWASTLAYGVPSRFSGSGSGTDFTLTISSLQPEDAATYYCAGGYGGGRYAFGQGTKVEIKRTVAAPSVFIFPPSDEQLKSGTASVVCLLNNFYPREAKVQWKVDNALQSGNSQESVTEQDSKDSTYSLSSTLTLSKADYEKHKVYACEVTHQGLSSPVTKSFNRGEC	1 fold	3.6 fold	0.8 fold	4.8 fold	1.4 fold	6.5 fold	1 fold	0.7 fold
M103205H795-MY143/M103202L889-SK1 (antibody, human IgG1, kappa) heavy: QVTLKESGPVLVKPTETLTLTCTVSGIDLSHDDISWVRQAPGKGLEWVGIISYAGSTYYASWAKGRLTISKDTSKNQVVLTMTNMDPVDTATYYCARGVPAYSHGGDLWGQGTLVTVSSASTKGPSVFPLAPSSKSTSGGTAALGCLVKDYFPEPVTVSWNSGALTSGVHTFPAVLQSSGLYSLSSVVTVPSSSLGTQTYICNVNHKPSNTKVDKKVEPKSCDKTHTCPPCPAPELLSGPSVFLFPPKPKDTLMISRTPEVTCVVVDVSEEDPEVKFNWYVDGVEVHNAKTKPREEQYNSTYRVVSVLTVLHQDWLNGKEYKCKVSNKALPAPIEKTISKAKGQPREPQVYTLPPSREEMTKNQVSLTCLVKGFYPSDIAVEWESNGQPENNYKTTPMVLDSDGSFFLYSKLTVDKSRWQQGNVFSCSVMHEALHNHYTQKSLSLSP light: DIVMTQSPATLSLSPGERATLSCTSSQSVYHANWLSWFQQKPGQPPKLLIYWASTLAYGVPSRFSGSGSGTDFTLTISSLQPEDAATYYCAGGYGGGRYAFGQGTKVEIKRTVAAPSVFIFPPSDEQLKSGTASVVCLLNNFYPREAKVQWKVDNALQSGNSQESVTEQDSKDSTYSLSSTLTLSKADYEKHKVYACEVTHQGLSSPVTKSFNRGEC	3.9 fold	18.6 fold	2.9 fold	6.3 fold	0.52 fold	13.3 fold	8.9 fold	5.9 fold
M103205H795-MY280/M103202L889-SK1 (antibody, human IgG1, kappa) heavy: QVTLKESGPVLVKPTETLTLTCTVSGIDLSHDDISWVRQAPGKGLEWVGIISYAGSTYYASWAKGRLTISKDTSKNQVVLTMTNMDPVDTATYYCARGVPAYSHGGDLWGQGTLVTVSSASTKGPSVFPLAPSSKSTSGGTAALGCLVKDYFPEPVTVSWNSGALTSGVHTFPAVLQSSGLYSLSSVVTVPSSSLGTQTYICNVNHKPSNTKVDKKVEPKSCDKTHTCPPCPAPELLVGPSVFLFPPKPKDTLMISRTPEVTCVVVDVSDEDPEVKFNWYVDGVEVHNAKTKPREELYNSTYRVVSVLTVLHQDWLNGKEYKCKVSNKALPKPIEKTISKAKGQPREPQVYTLPPSREEMTKNQVSLTCLVKGFYPSDIAVEWESNGQPENNYKTTPPVLDSDGSFFLYSKLTVDKSRWQQGNVFSCSVMHEALHNHYTQKSLSLSP light: DIVMTQSPATLSLSPGERATLSCTSSQSVYHANWLSWFQQKPGQPPKLLIYWASTLAYGVPSRFSGSGSGTDFTLTISSLQPEDAATYYCAGGYGGGRYAFGQGTKVEIKRTVAAPSVFIFPPSDEQLKSGTASVVCLLNNFYPREAKVQWKVDNALQSGNSQESVTEQDSKDSTYSLSSTLTLSKADYEKHKVYACEVTHQGLSSPVTKSFNRGEC	4.3 fold	8.5 fold	3.2 fold	1.6 fold	0.18 fold	2.4 fold	5.5 fold	–
